The values that follow come from PMC9426534, “Interactions of Bacterial Toxin CNF1 and Host JAK1/2 Driven by Liquid-Liquid Phase Separation Enhance Macrophage Polarization” (mBio, 2022).

The target in test [1] is T1, MYC-tagged JAK1, full length (UniProt P23458 1-1154).
T1 construct: also called MYC-JAK1; MYC-tagged full-length JAK1; source: HeLa, transfected, in lysate
Kind of test: co-IP; in vitro, purified proteins; truncated FLAG-tagged CNF1 proteins precipitated, MYC-tagged JAK1 detected and normalised to the FLAG-CNF1 in the IP. The following applies: both partners purified.

Test [2] has as its target T2, Cytotoxic necrotizing factor 1 (CNF1), recombinant FLAG-tagged, full length (uropathogenic Escherichia coli (UPEC), UniProt Q47106 1-1014).
T2 construct: also called FLAG-CNF1; FLAG-tagged full-length CNF1; source: recombinant, purified (additionally by size exclusion chromatography)
Kind of test: co-IP; in vitro, purified proteins; truncated MYC-tagged JAK1 proteins precipitated, FLAG-tagged CNF1 detected and normalised to the MYC-JAK1 in the IP. The note with it: both partners purified.

B1: FLAG-CNF1 truncation mutant 1-720 (N2) (domain or fragment)
chain: MGNQWQQKYLLEYNELVSNFPSPERVVSDYIKNCFKTDLPWFSRIDPDNAYFICFSQNRSNSRSYTGWDHLGKYKTEVLTLTQAALINIGYRFDVFDDANSSTGIYKTKSADVFNEENEEKMLPSEYLHFLQKCDFAGVYGKTLSDYWSKYYDKFKLLLKNYYISSALYLYKNGELDEREYNFSMNALNRSDNISLLFFDIYGYYASDIFVAKNNDKVMLFIPGAKKPFLFKKNIADLRLTLKELIKDSDKQQLLSQHFSLYSRQDGVSYAGVNSVLHAIENDGNFNESYFLYSNKTLSNKDVFDAIAISVKKRSFSDGDIVIKSNSEAQRDYALTILQTILSMTPIFDIVVPEVSVPLGLGIITSSMGISFDQLINGDTYEERRSAIPGLATNAVLLGLSFAIPLLISKAGINQEVLSSVINNEGRTLNETNIDIFLKEYGIAEDSISSTNLLDVKLKSSGQHVNIVKLSDEDNQIVAVKGSSLSGIYYEVDIETGYEILSRRIYRTEYNNEILWTRGGGLKGGQPFDFESLNIPVFFKDEPYSAVTGSPLSFINDDSSLLYPDTNPKLPQPTSEMDIVNYVKGSGSFGDRFVTLMRGATEEEAWNIASYHTAGGSTEELHEILLGQGPQSSLGFTEYTSNVNSADAASRRHFLVVIKVHVKYITNNNVSYVNHWAIPDEAPVEVLAVVDRRFNFPEPSTPPDISTIRKLLSLRYFKES
notes: source: recombinant, purified
For the molecule B1, in test [1], the binding result was “binds”.

B2: MYC-JAK1 truncation mutant 1-855 (domain or fragment)
chain: MQYLNIKEDCNAMAFCAKMRSSKKTEVNLEAPEPGVEVIFYLSDREPLRLGSGEYTAEELCIRAAQACRISPLCHNLFALYDENTKLWYAPNRTITVDDKMSLRLHYRMRFYFTNWHGTNDNEQSVWRHSPKKQKNGYEKKKIPDATPLLDASSLEYLFAQGQYDLVKCLAPIRDPKTEQDGHDIENECLGMAVLAISHYAMMKKMQLPELPKDISYKRYIPETLNKSIRQRNLLTRMRINNVFKDFLKEFNNKTICDSSVSTHDLKVKYLATLETLTKHYGAEIFETSMLLISSENEMNWFHSNDGGNVLYYEVMVTGNLGIQWRHKPNVVSVEKEKNKLKRKKLENKHKKDEEKNKIREEWNNFSYFPEITHIVIKESVVSINKQDNKKMELKLSSHEEALSFVSLVDGYFRLTADAHHYLCTDVAPPLIVHNIQNGCHGPICTEYAINKLRQEGSEEGMYVLRWSCTDFDNILMTVTCFEKSEQVQGAQKQFKNFQIEVQKGRYSLHGSDRSFPSLGDLMSHLKKQILRTDNISFMLKRCCQPKPREISNLLVATKKAQEWQPVYPMSQLSFDRILKKDLVQGEHLGRGTRTHIYSGTLMDYKDDEGTSEEKKIKVILKVLDPSHRDISLAFFEAASMMRQVSHKHIVYLYGVCVRDVENIMVEEFVEGGPLDLFMHRKSDVLTTPWKFKVAKQLASALSYLEDKDLVHGNVCTKNLLLAREGIDSECGPFIKLSDPGIPITVLSRQECIERIPWIAPECVEDSKNLSVAADKWSFGTTLWEICYNGEIPLKDKTLIEKERFYESRCRPVTPSCKELADLMTRCMNYDPNQRPFFRAIMRDINKLEEQNPDI
notes: source: recombinant, purified
In the case of B2, in test [2], the binding result is listed as “binds”.

B3: MYC-JAK1 truncation mutant 1-544 (domain or fragment)
chain: MQYLNIKEDCNAMAFCAKMRSSKKTEVNLEAPEPGVEVIFYLSDREPLRLGSGEYTAEELCIRAAQACRISPLCHNLFALYDENTKLWYAPNRTITVDDKMSLRLHYRMRFYFTNWHGTNDNEQSVWRHSPKKQKNGYEKKKIPDATPLLDASSLEYLFAQGQYDLVKCLAPIRDPKTEQDGHDIENECLGMAVLAISHYAMMKKMQLPELPKDISYKRYIPETLNKSIRQRNLLTRMRINNVFKDFLKEFNNKTICDSSVSTHDLKVKYLATLETLTKHYGAEIFETSMLLISSENEMNWFHSNDGGNVLYYEVMVTGNLGIQWRHKPNVVSVEKEKNKLKRKKLENKHKKDEEKNKIREEWNNFSYFPEITHIVIKESVVSINKQDNKKMELKLSSHEEALSFVSLVDGYFRLTADAHHYLCTDVAPPLIVHNIQNGCHGPICTEYAINKLRQEGSEEGMYVLRWSCTDFDNILMTVTCFEKSEQVQGAQKQFKNFQIEVQKGRYSLHGSDRSFPSLGDLMSHLKKQILRTDNISFMLKRCC
notes: source: recombinant, purified
B3: in test [2], the binding result is on record as “binds”.

B4: FLAG-CNF1 truncation mutant 190-1014 (C1) (domain or fragment)
chain: RSDNISLLFFDIYGYYASDIFVAKNNDKVMLFIPGAKKPFLFKKNIADLRLTLKELIKDSDKQQLLSQHFSLYSRQDGVSYAGVNSVLHAIENDGNFNESYFLYSNKTLSNKDVFDAIAISVKKRSFSDGDIVIKSNSEAQRDYALTILQTILSMTPIFDIVVPEVSVPLGLGIITSSMGISFDQLINGDTYEERRSAIPGLATNAVLLGLSFAIPLLISKAGINQEVLSSVINNEGRTLNETNIDIFLKEYGIAEDSISSTNLLDVKLKSSGQHVNIVKLSDEDNQIVAVKGSSLSGIYYEVDIETGYEILSRRIYRTEYNNEILWTRGGGLKGGQPFDFESLNIPVFFKDEPYSAVTGSPLSFINDDSSLLYPDTNPKLPQPTSEMDIVNYVKGSGSFGDRFVTLMRGATEEEAWNIASYHTAGGSTEELHEILLGQGPQSSLGFTEYTSNVNSADAASRRHFLVVIKVHVKYITNNNVSYVNHWAIPDEAPVEVLAVVDRRFNFPEPSTPPDISTIRKLLSLRYFKESIESTSKSNFQKLSRGNIDVLKGRGSISSTRQRAIYPYFEAANADEQQPLFFYIKKDRFDNHGYDQYFYDNTVGLNGIPTLNTYTGEIPSDSSSLGSTYWKKYNLTNETSIIRVSNSARGANGIKIALEEVQEGKPVIITSGNLSGCTTIVARKEGYIYKVHTGTTKSLAGFTSTTGVKKAVEVLELLTKEPIPRVEGIMSNDFLVDYLSENFEDSLITYSSSEKKPDSQITIIRDNVSVFPYFLDNIPEHGFGTSATVLVRVDGNVVVRSLSESYSLNADASEISVLKVFSKKF
notes: source: recombinant, purified
Turning to B4, the binding result in test [1] was “binds”.
